Measured values reported in US20250057968A1, “ANTI-DLL3 ANTIBODY AND PHARMACEUTICAL USE THEREOF, AND ANTIBODY-DRUG CONJUGATE CONTAINING ANTI-DLL3 ANTIBODY” (Jiangsu Hengrui Pharmaceuticals Co., Ltd., priority 2021, published 2025).

How the values were obtained:
[1] = biological target: T1, Human DLL3 full-length protein on cells (human, UniProt Q9NYJ7 27-618); test: FACS on DLL3/H82 cells
T1 construct: H1184 and DMS53 express DLL3 themselves; The cell line is named under assay; also called H1184 cells; DLL3/H82
T1 sequence: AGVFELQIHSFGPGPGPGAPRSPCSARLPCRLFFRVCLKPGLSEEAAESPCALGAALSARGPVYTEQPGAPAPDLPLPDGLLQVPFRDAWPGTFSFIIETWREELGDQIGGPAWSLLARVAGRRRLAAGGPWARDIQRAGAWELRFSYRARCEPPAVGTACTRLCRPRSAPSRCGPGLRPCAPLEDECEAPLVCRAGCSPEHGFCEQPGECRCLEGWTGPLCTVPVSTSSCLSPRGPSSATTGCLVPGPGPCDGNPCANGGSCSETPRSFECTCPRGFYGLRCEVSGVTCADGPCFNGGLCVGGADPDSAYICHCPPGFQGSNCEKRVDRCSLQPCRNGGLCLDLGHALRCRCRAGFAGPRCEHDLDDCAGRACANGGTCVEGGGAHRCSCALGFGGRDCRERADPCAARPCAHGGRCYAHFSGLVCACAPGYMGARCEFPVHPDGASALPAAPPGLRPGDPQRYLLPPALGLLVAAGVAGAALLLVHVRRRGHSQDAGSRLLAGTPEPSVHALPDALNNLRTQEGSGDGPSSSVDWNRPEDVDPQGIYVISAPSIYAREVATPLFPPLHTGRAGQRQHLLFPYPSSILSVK
Experimental: (§1) Cells of the DLL3-expressing small cell lung cancer cell lines H1184 (ATCC, Cat. No. CRL-5858), DLL3/H82, cynoDLL3/CHO-s, and RatDLL3/CHO-s were suspended at 1×10^6/mL in FACS buffer (1% BSA+pH 7.4 PBS), and the cell suspensions were added to a 96-well round-bottom plate (Corning, 3795) at 100 μL/well. The plate was centrifuged at 300 g for 5 min, and the supernatant was removed. Different concentrations of test antibodies were added at 100 μL/well. The plate was incubated in the dark in a refrigerator at 4° C. for 1 h. After 3 washes by centrifugation at 300 g, working concentrations of APC anti-human IgG Fc (BioLegend, 410712) or PE F(ab′)2-goat anti-human IgG (invitrogen, H10104) were added. The plate was incubated in the dark in a refrigerator at 4° C. for 40 min. After 3 washes by centrifugation at 300 g, the geometric mean fluorescence intensity was measured on an Invitrogen flow cytometer, and the EC50 values of the antibodies in binding to DLL3-expressing cells were calculated.

[2] = biological target: T2, human DLL3 (ACRO, DLL3-H52H4) (human, UniProt Q9NYJ7 27-479); test: SPR (Biacore 8K), antibody captured on Protein A chip, 1:1 fit
T2 construct: bought antigen of the Biacore assay; construct not described
T2 sequence (looked up): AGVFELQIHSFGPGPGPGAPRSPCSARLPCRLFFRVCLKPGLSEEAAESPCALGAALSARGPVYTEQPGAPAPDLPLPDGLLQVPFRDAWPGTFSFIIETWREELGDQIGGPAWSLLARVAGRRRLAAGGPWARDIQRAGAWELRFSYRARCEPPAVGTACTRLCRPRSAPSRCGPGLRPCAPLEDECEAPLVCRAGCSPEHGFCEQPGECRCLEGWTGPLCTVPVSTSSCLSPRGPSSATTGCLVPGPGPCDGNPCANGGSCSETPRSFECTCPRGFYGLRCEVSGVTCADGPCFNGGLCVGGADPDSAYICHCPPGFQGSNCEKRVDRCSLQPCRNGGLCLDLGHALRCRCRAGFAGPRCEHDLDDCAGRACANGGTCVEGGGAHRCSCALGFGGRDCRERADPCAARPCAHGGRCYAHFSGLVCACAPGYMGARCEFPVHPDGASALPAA
Source text: (§2) Test antibodies were affinity-captured with a Protein A biosensor chip (Cat. #29127556, Cytiva) for 18 seconds, and then the antigens human DLL3 (ACRO, DLL3-H52H4), cynomolgus monkey DLL3 (KACTUS, DLL-RM103), and mouse DLL3 (KACTUS, DLL-MM103) were allowed to flow over the surface of the chip for 180 seconds, followed by 600 seconds of dissociation. Reaction signals were detected in real time using a Biacore 8K (Cytiva) instrument to obtain association and dissociation curves. After the dissociation in each experimental cycle, the biosensor chip was washed and regenerated with a 10 mM glycine-hydrochloric acid solution (pH 1.5) (Cat. #BR-1003-54, Cytiva). A 1:1 model was fit to the data. The results are shown in Table 12-1, Table 12-2, and Table 12-3.

[3] = biological target: T3, human DLL3 (Homo sapiens, UniProt Q9NYJ7); test: Biacore antibody affinity assay, human DLL3; format: binding
T3 construct: purchased ACRO DLL3-H52H4
T3 sequence (Q9NYJ7 27-492 limits assumed): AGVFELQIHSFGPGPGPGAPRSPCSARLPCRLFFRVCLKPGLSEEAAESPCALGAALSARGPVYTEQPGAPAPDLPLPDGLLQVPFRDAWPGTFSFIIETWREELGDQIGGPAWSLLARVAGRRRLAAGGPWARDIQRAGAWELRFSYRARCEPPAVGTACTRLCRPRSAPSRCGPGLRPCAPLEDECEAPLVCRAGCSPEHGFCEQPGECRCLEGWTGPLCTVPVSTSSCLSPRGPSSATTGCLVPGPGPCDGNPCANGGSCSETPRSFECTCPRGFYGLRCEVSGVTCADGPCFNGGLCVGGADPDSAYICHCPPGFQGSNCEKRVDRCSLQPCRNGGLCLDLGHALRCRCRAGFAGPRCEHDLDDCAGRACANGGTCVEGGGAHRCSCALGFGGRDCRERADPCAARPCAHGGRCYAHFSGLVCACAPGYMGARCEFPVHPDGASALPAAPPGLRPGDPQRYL
Source text: as §2

[4] = biological target: T1, Human DLL3 full-length protein on cells; test: FACS on H1184 cells
Experimental: as §1

B1: M100CHI (antibody, human IgG1, kappa, V domains shown)
VH: EVQLVESGGGLVKPGGSLKLSCAASGFTFSDSGMHWIRQAPEKGLEWVAYISSGSSTIHYADTVKGRFTISRDNAKNTLFLQMTSLRSEDTAMYYCASPLYYYGRSYNAVAYWGQGTSVTVSS
VL: DIQMNQSPSSLSASLGDTITITCHASQNINVWLSWYQQKPGNIPKLLIYKASDLHTGVPSRFSGSGSGTGFTLTISSLQPEDIATYYCQQGQSYPLTFGGGTKLEIKR
notes: murine variable regions on human IgG1 / kappa constant regions; also called chimeric antibody of mAb100
Question: For B1, which EC50 [1] is on record?
Answer: The EC50 was 0.25 nM.

Question: And the Emax [1]?
Answer: Its Emax is 13500.

Question: What about the Kd [2] of the same molecule?
Answer: Its Kd is 0.528 nM.

Question: And the koff [2]?
Answer: Its koff is 0.000546 s⁻¹.

Question: And the kon [2]?
Answer: The kon was 1.03e+06 M⁻¹ s⁻¹.

B2: hAb6L3H2: humanized antibody of mAb6: hAb6VH2 (SEQ ID NO: 33) + hAb6VL3 (SEQ ID NO: 47), constant regions SEQ ID NO: 28/29 (antibody, V domains shown)
VH: EVQLVQSGAEVKKPGASVKVSCKASGYTFTDYYMNWVRQAPGQRLEWMGIINPYSGVTIYNHKFKGRVTLTVDKSANTAYMELSSLRSEDTAVYYCARQDSLLDYAMDYWGQGTTVTVSS
VL: DIQMTQSPSSLSASVGDRVTITCHASQGISGNMGWLQQKPGKSFKGLIYHGANLEDGVPSRFSGSGSGADYTLTISSLQPEDFATYYCVQYAQFPYTFGGGTKVEIK
modifications: constant regions SEQ ID 28/29; hAb6 VH2; hAb6 VL3
Question: B2 was tested. Which “ka” value [3] did it give?
Answer: The value was 716000 M⁻¹ s⁻¹.

Question: What about the “kd” value [3] of the same molecule?
Answer: The value was 0.00114 s⁻¹.

B3: hAb6L4H4: humanized antibody of mAb6: hAb6VH4 (SEQ ID NO: 35) + hAb6VL4 (SEQ ID NO: 48), constant regions SEQ ID NO: 28/29 (antibody, V domains shown)
VH: EVQLVQSGAEVKKPGASVKVSCKASGYTFTDYYMNWVRQAPGKRLEWMGIINPYSGVTIYNHKFKGRVTLTVDKSANTAYMELSSLRSEDTAVYYCARQDSLLDYAMDYWGQGTTVTVSS
VL: DIQMTQSPSSLSASVGDRVTITCHASQGISGNMGWLQQKPGKAPKGLIYHGANLEDGVPSRFSGSGSGADYTLTISSLQPEDFADYYCVQYAQFPYTFGGGTKVEIK
modifications: constant regions SEQ ID 28/29; hAb6 VH4; hAb6 VL4
Question: B3 was tested. Which “ka” value [3] did it give?
Answer: The value was 743000 M⁻¹ s⁻¹.

Question: And the “kd” value [3]?
Answer: The value was 0.00108 s⁻¹.

B4: hAb6L3H3: humanized antibody of mAb6: hAb6VH3 (SEQ ID NO: 34) + hAb6VL3 (SEQ ID NO: 47), constant regions SEQ ID NO: 28/29 (antibody, V domains shown)
VH: EVQLVQSGAEVKKPGASVKVSCKASGYTFTDYYMNWVRQAPGQRLEWIGIINPYSGVTIYNHKFKGRATLTVDKSANTAYMELSSLRSEDTAVYYCARQDSLLDYAMDYWGQGTTVTVSS
VL: DIQMTQSPSSLSASVGDRVTITCHASQGISGNMGWLQQKPGKSFKGLIYHGANLEDGVPSRFSGSGSGADYTLTISSLQPEDFATYYCVQYAQFPYTFGGGTKVEIK
modifications: constant regions SEQ ID 28/29; hAb6 VH3; hAb6 VL3
Question: Which results are given for B4?
Answer: ka [3]: 718000 M⁻¹ s⁻¹; kd [3]: 0.00135 s⁻¹

B5: M6CHI (antibody, human IgG1, kappa, V domains shown)
VH: EVQLQQSGPVLVKPGASVKMSCKASGYTFTDYYMNWVKQSHGKSLEWIGIINPYSGVTIYNHKFKGKATLTVDKSSNTAYMELNSLTSEDSAVYYCARQDSLLDYAMDYWGQGTSVTVSS
VL: DILMTQSPSSMSVSLGDTVSITCHASQGISGNMGWLQQKPGKSFKGLIYHGANLEDGVPSRFSGSGSGADYSLTISSLESEDFADYYCVQYAQFPYTFGGGTKLEIKR
notes: murine variable regions on human IgG1 / kappa constant regions; also called chimeric antibody of mAb6
Question: With B5 as the molecule, how does the EC50 [4] read?
Answer: The EC50 was 0.14 nM.

Question: And the Emax [4]?
Answer: Its Emax is 3370.

B6: hAb6L4H6 (antibody, human IgG1, kappa, V domains shown)
VH: EVQLVQSGSELKKPGASVKVSCKASGYTFTDYYMNWVRQAPGQGLEWMGIINPYSGVTIYNHKFKGRFVLSVDKSSNTAYLQISSLKAEDTAVYYCARQDSLLDYAMDYWGQGTTVTVSS
VL: DIQMTQSPSSLSASVGDRVTITCHASQGISGNMGWLQQKPGKAPKGLIYHGANLEDGVPSRFSGSGSGADYTLTISSLQPEDFADYYCVQYAQFPYTFGGGTKVEIKR
Question: How did the EC50 [4] turn out when B6 was run?
Answer: Its EC50 is 0.17 nM.

Question: And the Emax [4]?
Answer: Its Emax is 2000.

B7: hAb6L4H6: humanized antibody of mAb6: hAb6VH6 (SEQ ID NO: 37) + hAb6VL4 (SEQ ID NO: 48), constant regions SEQ ID NO: 28/29 (antibody, V domains shown)
VH: EVQLVQSGSELKKPGASVKVSCKASGYTFTDYYMNWVRQAPGQGLEWMGIINPYSGVTIYNHKFKGRFVLSVDKSSNTAYLQISSLKAEDTAVYYCARQDSLLDYAMDYWGQGTTVTVSS
VL: DIQMTQSPSSLSASVGDRVTITCHASQGISGNMGWLQQKPGKAPKGLIYHGANLEDGVPSRFSGSGSGADYTLTISSLQPEDFADYYCVQYAQFPYTFGGGTKVEIK
modifications: constant regions SEQ ID 28/29; hAb6 VH6; hAb6 VL4
Question: How did the “ka” value [3] turn out when B7 was run?
Answer: The value was 1.91e+06 M⁻¹ s⁻¹.

Question: And the “kd” value [3]?
Answer: The value was 0.000811 s⁻¹.

B8: hAb6L4H11: humanized antibody of mAb6: hAb6VH11 (SEQ ID NO: 42) + hAb6VL4 (SEQ ID NO: 48), constant regions SEQ ID NO: 28/29 (antibody, V domains shown)
VH: EVQLVQSGSELKKPGASVKVSCKASGYTFTDYYMNWVKQAPGQGLEWMGIINPYSGVTIYNHKFKGRFVLSVDKSSNTAYLQISSLKAEDTAVYYCARQDSLLDYAMDYWGQGTTVTVSS
VL: DIQMTQSPSSLSASVGDRVTITCHASQGISGNMGWLQQKPGKAPKGLIYHGANLEDGVPSRFSGSGSGADYTLTISSLQPEDFADYYCVQYAQFPYTFGGGTKVEIK
modifications: constant regions SEQ ID 28/29; hAb6VH11; hAb6 VL4
Question: For B8, which “ka” value [3] is on record?
Answer: Its value is 2.14e+06 M⁻¹ s⁻¹.

Question: And the “kd” value [3]?
Answer: The value was 0.000672 s⁻¹.

B9: hAb6L4H13: humanized antibody of mAb6: hAb6VH13 (SEQ ID NO: 44) + hAb6VL4 (SEQ ID NO: 48), constant regions SEQ ID NO: 28/29 (antibody, V domains shown)
VH: EVQLVQSGSELKKPGASVKVSCKASGYTFTDYYMNWVKQAPGQGLEWMGIINPYSGVTIYNHKFKGRFALSVDKSSNTAYLQISSLKAEDTAVYYCARQDSLLDYAMDYWGQGTTVTVSS
VL: DIQMTQSPSSLSASVGDRVTITCHASQGISGNMGWLQQKPGKAPKGLIYHGANLEDGVPSRFSGSGSGADYTLTISSLQPEDFADYYCVQYAQFPYTFGGGTKVEIK
modifications: constant regions SEQ ID 28/29; hAb6VH13; hAb6 VL4
Question: For B9, which “ka” value [3] is on record?
Answer: Its value is 2.16e+06 M⁻¹ s⁻¹.

Question: And the “kd” value [3]?
Answer: Its value is 0.000695 s⁻¹.
